Test results from patent publication US20040253247A1 (Genentech, published 2004).
Where no end group is shown, it is not given here.

molecular target: rat albumin (rat, UniProt P02770 25-608); experiment: phage ELISA
Method: (§1) Phage ELISA—Phage clones (˜10¹¹ phage) were added to plates coated with rat, rabbit or human albumin. The microtiter plate was washed with wash buffer and bound phage were detected with HRP/Anti-M13 Conjugate. The amount of HRP bound was measured using ABTS/H₂O₂ substrate and monitoring the change at 405 nm.

Sequence of rat albumin (P02770 25-608 limits assumed): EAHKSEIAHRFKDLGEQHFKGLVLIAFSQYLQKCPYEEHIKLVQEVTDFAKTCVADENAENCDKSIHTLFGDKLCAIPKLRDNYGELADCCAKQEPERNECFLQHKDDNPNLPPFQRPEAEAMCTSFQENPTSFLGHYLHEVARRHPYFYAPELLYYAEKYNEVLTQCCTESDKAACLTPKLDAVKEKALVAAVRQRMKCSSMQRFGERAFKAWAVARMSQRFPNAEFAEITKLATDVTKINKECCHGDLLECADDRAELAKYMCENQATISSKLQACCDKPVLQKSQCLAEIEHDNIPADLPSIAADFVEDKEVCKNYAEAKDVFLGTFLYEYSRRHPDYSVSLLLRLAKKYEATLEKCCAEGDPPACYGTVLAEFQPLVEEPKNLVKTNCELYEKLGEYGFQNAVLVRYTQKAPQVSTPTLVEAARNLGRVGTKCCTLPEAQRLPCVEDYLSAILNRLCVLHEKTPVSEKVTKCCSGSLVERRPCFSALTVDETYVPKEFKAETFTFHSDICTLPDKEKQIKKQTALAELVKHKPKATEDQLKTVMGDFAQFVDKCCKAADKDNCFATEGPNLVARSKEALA

Binder | binding result
QTELCYFPGICWNES (phage clone, Library HBC) [HBC-H13] | no binding
QTRSFCADWPRHESCKPLRG (phage clone, Library HA) [HA-H76] | no binding
GVRTFCQDWPAHNSCKLLRG (phage clone, Library HA) [HA-H73] | no binding
REPASLVCYFEDICFVRAEA (phage clone, Library HB) [HB-H3] | no binding
VRDMCYFPGICWKSE (phage clone, Library HBC) [HBC-H19] | no binding
LVPERIVCYFESICYERSEL (phage clone, Library HB) [HB-H4] | no binding
ASEICYFPGICWMVE (phage clone, Library HBC) [HBC-H12] | no binding
MEPSRSVCYAEGICFDRGEQ (phage clone, Library HB) [HB-H8] | no binding
LAEMCYFPGICWMSA (phage clone, Library HBC) [HBC-H7] | no binding
GMCYFPGICWA (phage clone, Library HC) [HC-H4] | no binding
KLCYFPGICWS (phage clone, Library HC) [HC-H2] | no binding
DMCYFPGICWL (phage clone, Library HC) [HC-H13] | no binding
RDTVCYFPGICWMAS (phage clone, Library HBC) [HBC-H18] | no binding
NDEICYFPGVCWKSG (phage clone, Library HBC) [HBC-H11] | no binding
SGAICYVPGICWTHA [HB-H7] | no binding
RAPERWVCYWEGICFDRYEQ (phage clone, Library HB) [HB-H1] | no binding
GRSFCMDWPAHKSCTPLML (phage clone, Library HA) [HA-H83] | no binding
TTEMCYFPGICWKTE (phage clone, Library HBC) [HBC-H14] | no binding
RGPDVCYWPSICFERSMP (not fully specified (bridges); cysteine pairing not given here, phage clone, Library HB) [HB-H6] | no binding
IVEMCYYPGICWISP [HB-H10] | no binding
RTAESLVCYWPGICFAQSER (phage clone, Library HB) [HB-H18] | no binding
ETCYFPGICWL (phage clone, Library HC) [HC-H12] | no binding
DICYIPGICWM (phage clone, Library HC) [HC-H6] | no binding
KTEICYFPGICWMSG (phage clone, Library HBC) [HBC-H15] | no binding
RMPASLPCYWETICYESSEQ (phage clone, Library HB) [HB-H16] | no binding
DMCYFPGICFN (phage clone, Library HC) [HC-H18] | no binding

molecular target: human albumin (human, UniProt P02768 25-609); experiment: phage ELISA
Method: as §1

Binder | binding result
KMGRVDFCLPKWGCLWGDEL (phage clone, Library RB) [RB-R13] | no binding
QRPIMDFCLPKWGCLWEDGF (phage clone, Library RB) [RB-R7] | no binding
EWDVCLPHWGCLWDG (phage clone, Library RBC) [RBC-R16] | no binding
RWQTEDVCLPKWGCLFGDGV (phage clone, Library RB) [RB-B1] | no binding
QGGMGDFCLPQWGCLWGEDL (phage clone, Library RB) [RB-R17] | no binding
QRLMWEICLPLWGCLWGDGL (phage clone, Library RB) [RB-R5] | no binding
QRQIMDFCLPHWGCLWGDGF (phage clone, Library RB) [RB-R10] | no binding
QSQLEDFCLPKWGCLWGDGF (phage clone, Library RB) [RB-R15] | no binding
DICLPVWGCLW (phage clone, Library RC) [RC-R1] | no binding
QGDFWDICLPRWGCLSGEGY (phage clone, Library RB) [RB-B10] | no binding
ERQMVDFCLPKWGCLWGDGF (phage clone, Library RB) [RB-R11] | no binding
QRQVVDFCLPQWGCLWGDGS (phage clone, Library RB) [RB-R14] | no binding
QGYMVDFCLPRWGCLWGDAN (phage clone, Library RB) [RB-R12] | no binding
QRHMMDFCLPKWGCLWGDGY (phage clone, Library RB) [RB-R4] | no binding

molecular target: rabbit albumin (rabbit, UniProt P49065 25-608); experiment: phage ELISA
Sequence (P49065 25-608 limits assumed): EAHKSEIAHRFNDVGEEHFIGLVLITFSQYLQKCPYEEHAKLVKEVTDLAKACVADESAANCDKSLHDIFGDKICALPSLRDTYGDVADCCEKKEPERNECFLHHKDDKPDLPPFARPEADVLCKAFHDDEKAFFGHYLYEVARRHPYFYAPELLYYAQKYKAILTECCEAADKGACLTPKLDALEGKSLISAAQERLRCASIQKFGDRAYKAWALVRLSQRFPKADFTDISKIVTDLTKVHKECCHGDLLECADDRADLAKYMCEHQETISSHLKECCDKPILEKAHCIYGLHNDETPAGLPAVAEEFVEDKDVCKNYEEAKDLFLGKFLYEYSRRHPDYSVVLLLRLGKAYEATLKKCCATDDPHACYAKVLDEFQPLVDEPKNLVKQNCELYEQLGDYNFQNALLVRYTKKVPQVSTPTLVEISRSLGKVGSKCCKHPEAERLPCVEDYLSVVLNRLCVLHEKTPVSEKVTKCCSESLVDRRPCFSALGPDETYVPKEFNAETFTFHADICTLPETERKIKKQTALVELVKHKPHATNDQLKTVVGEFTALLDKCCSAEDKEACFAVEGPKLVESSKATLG
Method: as §1

Binder | binding result
QTELCYFPGICWNES (phage clone, Library HBC) [HBC-H13] | no binding
QTRSFCADWPRHESCKPLRG (phage clone, Library HA) [HA-H76] | no binding
GVRTFCQDWPAHNSCKLLRG (phage clone, Library HA) [HA-H73] | no binding
REPASLVCYFEDICFVRAEA (phage clone, Library HB) [HB-H3] | no binding
VRDMCYFPGICWKSE (phage clone, Library HBC) [HBC-H19] | no binding
LVPERIVCYFESICYERSEL (phage clone, Library HB) [HB-H4] | no binding
ASEICYFPGICWMVE (phage clone, Library HBC) [HBC-H12] | no binding
MEPSRSVCYAEGICFDRGEQ (phage clone, Library HB) [HB-H8] | no binding
LAEMCYFPGICWMSA (phage clone, Library HBC) [HBC-H7] | no binding
GMCYFPGICWA (phage clone, Library HC) [HC-H4] | no binding
QRLMWEICLPLWGCLWGDGL (phage clone, Library RB) [RB-R5] | no binding
QRQIMDFCLPHWGCLWGDGF (phage clone, Library RB) [RB-R10] | no binding
KLCYFPGICWS (phage clone, Library HC) [HC-H2] | no binding
DMCYFPGICWL (phage clone, Library HC) [HC-H13] | no binding
RDTVCYFPGICWMAS (phage clone, Library HBC) [HBC-H18] | no binding
DICLPVWGCLW (phage clone, Library RC) [RC-R1] | no binding
NDEICYFPGVCWKSG (phage clone, Library HBC) [HBC-H11] | no binding
SGAICYVPGICWTHA [HB-H7] | no binding
RAPERWVCYWEGICFDRYEQ (phage clone, Library HB) [HB-H1] | no binding
GRSFCMDWPAHKSCTPLML (phage clone, Library HA) [HA-H83] | no binding
QRQVVDFCLPQWGCLWGDGS (phage clone, Library RB) [RB-R14] | no binding
TTEMCYFPGICWKTE (phage clone, Library HBC) [HBC-H14] | no binding
RGPDVCYWPSICFERSMP (not fully specified (bridges); cysteine pairing not given here, phage clone, Library HB) [HB-H6] | no binding
IVEMCYYPGICWISP [HB-H10] | no binding
RTAESLVCYWPGICFAQSER (phage clone, Library HB) [HB-H18] | no binding
ETCYFPGICWL (phage clone, Library HC) [HC-H12] | no binding
DICYIPGICWM (phage clone, Library HC) [HC-H6] | no binding
KTEICYFPGICWMSG (phage clone, Library HBC) [HBC-H15] | no binding
RMPASLPCYWETICYESSEQ (phage clone, Library HB) [HB-H16] | no binding
DMCYFPGICFN (phage clone, Library HC) [HC-H18] | no binding
